B1: Dexamethasone-induced Ras-related protein 1 (Mus musculus), O35626 (parent)
chain: MKLAAMIKKMCPSDSELSIPAKNCYRMVILGSSKVGKTAIVSRFLTGRFEDAYTPTIEDFHRKFYSIRGEVYQLDILDTSGNHPFPAMRRLSILTGDVFILVFSLDNRDSFEEVQRLKQQILDTKSCLKNKTKENVDVPLVICGNKGDRDFYREVEQREIEQLVGDDPQRCAYFEISAKKNSSLDQMFRALFAMAKLPSEMSPDLHRKVSVQYCDVLHKKALRNKKLLRAGSGGGGDHGDAFGILAPFARRPSVHSDLMYIREKTSVGSQAKDKERCVIS
partner: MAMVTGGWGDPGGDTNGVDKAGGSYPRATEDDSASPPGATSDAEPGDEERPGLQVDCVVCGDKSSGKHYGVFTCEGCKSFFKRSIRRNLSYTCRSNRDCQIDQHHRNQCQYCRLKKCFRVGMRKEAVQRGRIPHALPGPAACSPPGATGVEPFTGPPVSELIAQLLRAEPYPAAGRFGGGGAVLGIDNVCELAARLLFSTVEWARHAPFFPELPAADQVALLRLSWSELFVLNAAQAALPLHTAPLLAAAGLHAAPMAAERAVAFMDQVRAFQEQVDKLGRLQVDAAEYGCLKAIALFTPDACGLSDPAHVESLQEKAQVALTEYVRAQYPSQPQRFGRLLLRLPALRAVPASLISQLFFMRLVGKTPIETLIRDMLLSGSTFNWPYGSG

Variants of: B1
Settings: with nr2f6_mouse Nr2f6, P43136
For K34N, the “effect of a mutation on the interaction” value was “decreasing interaction”.
For G81A, the “effect of a mutation on the interaction” value was “decreasing interaction”.

From IntAct's records for PubMed 21247419
